From patent US20160264684A1, “GLYCAN-INTERACTING COMPOUNDS AND METHODS OF USE” (SIAMAB THERAPEUTICS, INC., priority 2013, published 2016)

Key:
Format in all cases: binding
[1] = Glycan array STn specificity and anti-STn antibody group; design: key to Group: Group 1 antibodies according to the invention are antibodies capable of binding AcSTn and GcSTn; Antibodies were assigned to Group 2 based on their ability to bind STn as well as some related structures that include an O-linkage to serine or threonine; Group 3 antibodies are antibodies capable of binding STn, but may also bind a broader set of related structures; Group 4 antibodies are capable of binding to both AcSTn and GcSTn as well as the un-sialylated Tn antigen
Protocol: (§1) Optimized glycan arrays comprise 71 chemically synthesized and well-defined glycans, most of which comprise Neu5Ac and Neu5Gc glycan pairs.
(§2) 300 ml of epoxy blocking buffer is prepared by combining 15 ml of 2 M Tris buffer (pH 8) with 0.9 ml of 16.6 M ethanolamine and 284.1 ml of distilled water. The solution is filtered using a […] nitrocellulose membrane. The epoxy buffer solution as well as 1 L of distilled water are pre-warmed to 50° C. Glass slides are arranged in a slide holder and quickly submerged in a staining tub with the warmed epoxy blocking buffer. Slides are incubated in the epoxy blocking buffer for 1 hour at 50° C. with periodic shaking to deactivate epoxy binding sites. Next, slides are rinsed and blocked with PBS with 1% OVA at 25° C. for one hour. Serum samples are diluted 1:1000 in PBS with 1% OVA and added to the glycan array for one hour at 25° C. After extensive washing, binding of polyclonal serum antibodies are detected by incubating glycan microarray slides with Cy3-conjugated anti-mouse IgG (Jackson Immunoresearch, West Grove, Pa.) for one hour. Slides are then washed extensively, dried and scanned with a Genepix 4000B scanner (Laser at 100%; gain at 350; 10 μm pixels). Raw data from scanned images are extracted using the Genepix software and analysis of raw data is carried out.
Based on characterization data, anti-STn antibodies developed from Group 6 and Group 8 mice were categorized by anti-STn group number. In some cases, antibodies were assigned to Group 1. Group 1 antibodies according to the invention are antibodies capable of binding AcSTn and GcSTn. Such antibodies may have the ability to associate with a wider range of STn structures. The large oval in FIG. 1A indicates the portion of STn recognized by Group 1 antibodies. […] Also listed in the Table is the antibody Isotype for each antibody as determined by the IsoStrip mouse monoclonal antibody isotyping kit (Roche Diagnostics GmbH, Manheim, Germany).

[2] = Glycan microarray analysis, GcSTn
Protocol: as §1
as §2, with “Slides are then washed extensively, dried and scanned with a Genepix 4000B scanner (Laser at 100%; gain at 350; 10 μm pixels). Raw data from scanned images are extracted using the Genepix software and analysis of raw data is carried out.” left out
(§3) 18D2 and 18C7 clones were expanded and binding properties of these hybridomas were determined by glycan microarray analysis according to Example 4. […] No binding to Tn antigen or other glycans was detected.

[3] = Glycan microarray analysis, 9-O-acetylated AcSTn
Protocol: as §1
as §2, with “Slides are then washed extensively, dried and scanned with a Genepix 4000B scanner (Laser at 100%; gain at 350; 10 μm pixels). Raw data from scanned images are extracted using the Genepix software and analysis of raw data is carried out.” left out
as §3

[4] = system: STn on bovine submaxillary mucin (BSM); assay: Anti-STn BSM ELISA
Protocol: Anti-STn serum titer is determined using a murine anti-STn bovine submaxillary mucin (BSM) ELISA together with serum profiles observed by glycan microarray. 96-well plates are coated with 1 μg/well of BSM and incubated overnight at 4° C. O-acetylation of BSM antigen is removed by treating wells with 0.1 M sodium hydroxide. Specific binding to STn is determined by treatment of wells with sodium periodate. Periodate treatment destroys the C6 side chain of sialic acid; therefore antibodies raised against STn should not bind to periodate-treated wells. Wells are blocked with PBS 1% ovalbumin (OVA). Serum samples to be assayed are serially diluted in PBS 1% OVA. A commercially available mouse anti-STn monoclonal antibody, 3F1 (SBH Sciences, Natick, Mass.) is used as a positive control. This antibody is also serially diluted in PBS with 1% OVA. A pool of serum from naïve wild type mice is used for the preparation of negative control samples. Detection of anti-STn antibodies present in serum is determined using an HRP-conjugated polyclonal goat anti-mouse IgG antibody (Jackson Immunoresearch, West Grove, Pa.). The reaction is stopped by addition of sulfuric acid (1.6 M). Optical densities are measured at 490 nm using a Spectramax microplate reader (Molecular Devices, Sunnyvale, Calif.). The serum titer is obtained by comparison of OD values with a cutoff value calculated as two standard deviations above the mean of optical density values of the negative control. […]
Binding affinities of 18D2 and 18C7 to STn were compared to commercially available anti-STn antibodies using the BSM ELISA assay described in Example 2. […] Antibody binding was determined using HRP-conjugated polyclonal goat anti-mouse IgG antibody (Jackson Immunoresearch Laboratories, West Grove, Pa.). […] Optical densities were measured at 490 nm using a Spectramax microplate reader. […] The half maximal effective concentration (EC50) for each antibody was calculated using a non-linear regression analysis carried out on periodate subtracted data.

[5] = Glycan microarray analysis, AcSTn
Protocol: as §1
as §2, with “Slides are then washed extensively, dried and scanned with a Genepix 4000B scanner (Laser at 100%; gain at 350; 10 μm pixels). Raw data from scanned images are extracted using the Genepix software and analysis of raw data is carried out.” left out
as §3

binding to periodate-treated wells ([4]; BSM ELISA, sodium periodate treated wells): did not bind | EC50 ([4]; non-linear regression on periodate subtracted data, 7-point 1:5 dilution from 100 nM): 6.3 nM
B1: 18D2: anti-STn monoclonal antibody from mouse #4436; IgG2b κ; heavy chain SEQ ID NO 1, light chains SEQ ID NO 2 and 3 (antibody, V domains shown)
VH: QVTLKESGPGILQPSQTLSLTCSFSGFSLSTSNMGIGWIRQPSGKGLEWLAHIWWHDDKYYNPSLKSRLTISKDISNNQVFLKITSVDTADTATYYCAQVPFYYGTSFDVWGTGTTVTVSS
VL 1: DIVMTQSPATLSVTPGDRVSLSCRASQSISDYLHWYQQKSHESPRLLIKYASQSISGIPSRFSGSGSGSDFTLSINSVEPEDVGVYYCQNGHSFPLTFGAGTKLELK
VL 2: QIVLTQSPAIMSASPGETVTMTCSASSSITYMHWYQQKPGTSPKRWIYDTSKLASGVPARFSGSGSGTSYSLTISSMEAEDAATYYCHQRSSYTFGGGTKLEIKR
Glycan Array STn Specificity [1]: 100% | Group ([1]; assigned from flow cytometry and glycan array analysis): 1 | Glycan Array GcSTn [2]: 50% | mean fluorescence intensity, GcSTn ([2]; glycan microarray): about 7,000 | mean fluorescence intensity, Neu5,9Ac2-α2,6-GalNAc [3]: about 4,500 | Glycan Array AcSTn [5]: 50% | mean fluorescence intensity, AcSTn ([5]; glycan microarray): about 16,000
